The nature of the data set: soluble fraction after stress (log2 fold change); higher = more stays soluble; pooled small domains, quantitative proteomics. Particulars: stress: pH 4. In a few lines:
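Following acid stress at pH 4, the amount of each small protein domain still soluble was measured in pooled custom libraries by high-throughput quantitative proteomics. Its fold change, on a log2 scale, is higher when more of the domain stayed soluble. This fold change is taken as a measure of aggregation propensity.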
As to “HMAGGNHPTRLELLDSAAHIAERDGTSALTVDAITKSAGHAKGTFYIHFDDRADLLVEMHRR”, the “soluble fraction (log2)” value was -0.323.
Take “HMAGIPIHMSQLKQIILLLSQGYPIKGIARETGVSRNTIKGYLQTLTSQDLNVTDALKLENIQLEYLLRSP”: the “soluble fraction (log2)” value is -0.239.
“HMAGLYSLLLVELPMERLPEDLPAIKAAWLKTGDTEAFKVALQAMSSRGWTIAVPGKHRDTQMTQL”: the “soluble fraction (log2)” value was -0.235.
With “HMAGPVLTPEEAEVLRILADHGEMTVDNISAEGKMSAAVVLRGLGVLSAYGLVAPGGPGRWRSE” the figure was 0.00808; with “HMAGTDLSERESEIAMLLLKGYPYKLIASRLYISESTVKSHVQNIYGKLGIHSRTELIEQFSAS”, -0.966; with “HMAGTPAIVKWFNPTKGFGFVTPKEAGSDALLHASVLAKRGKRWLQEGTLVEVLIEEGPKGLVVSELLTIE”, -0.659.
Take “HMAGTRRFELVEGSSSKFWEVTVADGSYTVTYGRIGTAGGSKTTESATAEADAEKLVREKLKKGYQEAGAA”: the “soluble fraction (log2)” value worked out at 0.128.
Turning to “HMAGTRVWSENGQLYVTAAVSGRANVYNVLGKLNRSLTFSAGETKSVSVPAGIYVVSLNNGKAYKVAV”, the “soluble fraction (log2)” value stood at 0.0936.
On to “HMAGWIPVEERLPDDLTNPITRDAYVYPVTVDLGDVTDIRYYSFWRGHWYNQGPETMDDLVIAWMLLPEPY”, for which the “soluble fraction (log2)” value is -0.178.
With “HMAHESYVKEQLLLSLTNHEDPIMQISLIEQLTKMHERNIIHELEKLTVDVQTNEEVKVQAYASLLILS” the figure was -0.962; with “HMAHKYYSIMRPVSIGTFPDNGTILGIVNFDTRQMVESIGKMAWGYINYGKPLTEKQISDYELVAE”, 0.361; with “HMAHLNYQTVDINALIRHSLQLVSQDAQSRGIALQFTPRPELTTISADPDRLNQVLLNLYLNAMQD”, -0.205.
With “HMAHLSPNDAARLVGVSRPLLNQILDEGRITFFETAGGHRKIKLAAVLAYIKERDEVAAQLAAART” the figure was -0.514; with “HMAHSDEAWSVARRVARELDKILDGAGPRRTALVRAAAELRLSTRQIYNLLARYRADRTVTSLLPRR”, -0.353.
With “HMAHSWEAIRVKLQQIIDEEDKTKPLNDDQIKEKLAEAGIPNLARRTVAKYRKLLNIPTARFRKR”, the “soluble fraction (log2)” value was 0.208.
With “HMAIDINKIYSEIKKKIPNQDNHIKEILSIIWRDFNNYQNIKSRSILINGEKSSPKKEIFNIIEDNINIPV”, the “soluble fraction (log2)” value is 0.00852.
Regarding “HMAIDPLLDKGYEQYDKGEFTEAVKSFNRAIEIDPKNAEAHFLRAMTYQGLALSKLAVADLEKAIV”, the “soluble fraction (log2)” value was -0.127.
Consider “HMAIGDYYINASALNVRSGEGTNYRIIGALPQGQKVQVISENSGWSKINYNGQTGYIGTRYLSKTPV”, for which the “soluble fraction (log2)” value came to 0.22.
The value for “HMAIHTSVTEHGEHDLTVRMEMEQVFAIEMAVVSHEQATMLERTFKANAEAIYQKLLGVMTQEYP” was -0.841; that for “HMAISEEEATNLALERVPGASAQDLRIQLEFDDGVQKYEGDIIYDGKEYDFEIDANTGTFLEWSE” was 0.22.
The value for “HMAISSADRIVAELRTWISGASPGTQLPSSRTLAARYGASPVTVQKALHTLAGMGLVEARPGAGTFVRRQS” was at least 0.43; that for “HMAITVPEGATLSDAAVLLKQAGAVRSADAFLTRAKVFGGSTPIKAGEFVIPVQASNKDILAILQGGK” was -0.193.
With “HMAKIATTVYEQIRTAILNGELSNSERLVEEDLAVSMGISRTPVREALRRLAAEGLVDVSPNRGARVAE” the figure was -0.778; with “HMAKINFTSDAIDIGMVTRNDIEMLSFYQNVLGLTKDMEIPFPGLGVVNKLSFGSGFIKILVL”, -0.272; with “HMAKLGITQREQEVLQLLVTGKTYKEIAAELFISLPTVKTHVSNIYSKAKVRNRLELSNLINYI”, -1.22.
With “HMAKNYYEILGLKSDATLPEIKKAFKKLSKKFHPDKNRDDDGYFESMFKSINEAYQVLIDEDKRATFDSHH”, the “soluble fraction (log2)” value is 0.166.
With “HMAKPAALLFEHRFDGMAEMRFRENIVKNDDGSYTYDEYFLSMLDRAGLEKIVQENMEVWIAYAKQ” the figure was -1.42.
With “HMAKPVKSPLPGSVIKVAVKVGQQIKRGDLLLTLESMKMENSILAEKDGVVKNIHVQAGQSVMQDDLLLDI”, the “soluble fraction (log2)” value is -0.957.
As for “HMAKPVNISAEPYHYDPTRFRVTFELPRLSDQPRKRIRKVAPAGLDREQALAWAKRLEREVLHELLR”, the “soluble fraction (log2)” value was -0.144.
The value for “HMAKVSVNIILKDGVDQTTFVNDVTSNTEVDLKNQLISLPQMVVLSVEEDYINTLKSHSSISILELDE” was -0.541; that for “HMALALDDLFDRYEQLQDQSLGDKTEEGQELRAMIRAYIEQEGLSVRVTRSTTNRELLELIEQEMEG” was -0.703; that for “HMALENTDLYAHLRLSHTASVPEIQAALSARVKHMPLQTWLLARKWLLHPRLRERYDGMWSVRFGA” was -0.136.
In the case of “HMALGRTGEVYLPIPAGRAGHGKISITLQGALREVDAVTAGEALPRGTSVRVVDVAGNGVLLVEK”, the “soluble fraction (log2)” value was determined as 0.32.
For the sequence “HMALHDTLSYEEYLDLGLNGKADSAEKRELVAHALHLGRPNAKTLYKRLNMLQLNRKDVAALLEQ”, the “soluble fraction (log2)” value worked out at 0.299.
With “HMALHLPTTTINGRQYYYFKSKEKITVYGLSKRLGLTRQEIVEHNPSAVDGIKRGSTLYFPVDEFAD” the figure was -0.074.
The value for “HMALLKRQDEILMYLYTQNKWITGNELAQLFHVSLRTIRNDISFINTEKSNSVLSNRNKGYHIAKDFVYNE” was -0.0758.
For “HMALPDSEKRQWLVDEVNERGLKLPDDVLEYLFARVGRSQAHLVDVIEKLDFESLAQSRKLTIPFVREVLK”, the “soluble fraction (log2)” value is -0.753.
With “HMALPRYFFRTRENGAVLFKTPVNNHQNRLEMHQIAAINIRNETVKPLGDTVLTDEETELIADWMRERKTV” the figure was -0.596; with “HMALSVRNRMSDLLRMLGDGEFHRFENLFSLEEGRHGIVVTFLAMLELAKEQLVEISQGESLAPIYLKSLA”, -0.403; with “HMAMDVKEVLLPGVGLRYEFDNSDGDRIGVIAKRSGDFEVVRYTAADRDAAQPMFRLTDEEADALAQILGA”, -0.487.
The value for “HMAMDYYAIGQRIRKFRKAHDWSQEELAEKVEISTTHMSHIETGSTKLSLPVLVSLANVLDVRTDDLLF” was -0.272; that for “HMAMKFQDIVRQKRKELGLTQEQAARRLGVSPAAVSKWESGQSLPDTPLFAPLARLLHTDLNTLLSFE” was -0.34; that for “HMAMTQNVDLAGRIVFNEKKEEVFNFGKHKGRSVAEVFEKEPSYYDWMLKGDFPAETKQVLTALRLRGLS” was -0.64.
Regarding “HMAMTRTEYLNQLKHYLKRLPHTDYEEAMDYFKEYFEEAGPENEAQVIQDLGNPKEAAYEILSQLL”, the “soluble fraction (log2)” value is -0.615.
For “HMANDNFPLKLGSKGPRVLQLKTMLIQSLSNDALPKGRSSDAFDSELEALLSRNNLPTVIDETNFRVLTK”, the “soluble fraction (log2)” value was found to be 0.0149.
As to “HMANFGSILRNLRISRDITQSELAAKLGVSRSTVGMYETGAREPDFEAMEAIADTFNVDMDYLVGRSQ”, the “soluble fraction (log2)” value was -0.326.
The value for “HMANLAQITKTNAVALALKDVGAYNSEDLMKFIDLDKVVLGEDGKPQLEDTINSLKESSPYLFQ” was -0.843; that for “HMANMTAKQINMFGDKLSRDKDFQSYYIAKSGDSREQYAQDIKGKLLDPFYVNAWMPYLEKIGFVPS” was 0.106; that for “HMANPEFAGYINGKPYFGPTHQHRGVKMLGATHTRNPHPLVWDSIAESLANYDSRFRWSGGQIL” was -0.203.
Regarding “HMANTAKVNVDTANLRETADENSKILKQLSLNDNLEVVEETGDWYKVKNSNVTGYVRKDLVTVEN”, the “soluble fraction (log2)” value amounted to 0.244.

The record behind these values is the domain aggregation screens of Martell et al. (2025).
